Target: T1, GFP-C9orf72 (human, UniProt Q96LT7-1 1-481)
T1 sequence: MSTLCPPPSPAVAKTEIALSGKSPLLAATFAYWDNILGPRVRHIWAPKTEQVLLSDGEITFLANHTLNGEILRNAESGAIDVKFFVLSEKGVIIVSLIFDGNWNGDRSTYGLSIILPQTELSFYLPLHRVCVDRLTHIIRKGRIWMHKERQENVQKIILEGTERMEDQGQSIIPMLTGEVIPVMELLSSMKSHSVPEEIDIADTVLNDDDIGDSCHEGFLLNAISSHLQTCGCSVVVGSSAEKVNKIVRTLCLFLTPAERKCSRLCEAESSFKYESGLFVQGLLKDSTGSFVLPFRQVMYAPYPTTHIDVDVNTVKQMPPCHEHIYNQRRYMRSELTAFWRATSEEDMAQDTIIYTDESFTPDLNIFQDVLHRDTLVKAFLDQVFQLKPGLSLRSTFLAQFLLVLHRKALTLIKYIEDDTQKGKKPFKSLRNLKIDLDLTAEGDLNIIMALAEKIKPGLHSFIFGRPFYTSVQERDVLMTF
Assay: co-IP

B1: SMCR8-tdTomato (natural protein)
chain: MISAPDVVAFTKEEEYEEEPYNEPALPEEYSVPLFPFASQGANPWSKLSGAKFSRDFILISEFSEQVGPQPLLTIPNDTKVFGTFDLNYFSLRIMSVDYQASFVGHPPGSAYPKLNFVEDSKVVLGDSKEGAFAYVHHLTLYDLEARGFVRPFCMAYISADQHKIMQQFQELSAEFSRASECLKTGNRKAFAGELEKKLKDLDYTRTVLHTETEIQKKANDKGFYSSQAIEKANELASVEKSIIEHQDLLKQIRSYPHRKLKGHDLCPGEMEHIQDQASQASTTSNPDESADTDLYTCRPAYTPKLIKAKSTKCFDKKLKTLEELCDTEYFTQTLAQLSHIEHMFRGDLCYLLTSQIDRALLKQQHITNFLFEDFVEVDDRMVEKQESIPSKPSQDRPPSSSLEECPIPKVLISVGSYKSSVESVLIKMEQELGDEEYKEVEVTELSSFDPQENLDYLDMDMKGSISSGESIEVLGTEKSTSVLSKSDSQASLTVPLSPQVVRSKAVSHRTISEDSIEVLSTCPSEALIPDDFKASYPSAINEEESYPDGNEGAIRFQASISPPELGETEEGSIENTPSQIDSSCCIGKESDGQLVLPSTPAHTHSDEDGVVSSPPQRHRQKDQGFRVDFSVENANPSSRDNSCEGFPAYELDPSHLLASRDISKTSLDNYSDTTSYVSSVASTSSDRIPSAYPAGLSSDRHKKRAGQNALKFIRQYPFAHPAIYSLLSGRTLVVLGEDEAIVRKLVTALAIFVPSYGCYAKPVKHWASSPLHIMDFQKWKLIGLQRVASPAGAGTLHALSRYSRYTSILDLDNKTLRCPLYRGTLVPRLADHRTQIKRGSTYYLHVQSMLTQLCSKAFLYTFCHHLHLPTHDKETEELVASRQMSFLKLTLGLVNEDVRVVQYLAELLKLHYMQESPGTSHPMLRFDYVPSFLYKI
- stoichiometry N: ~1
